B1: Hairpin Ribozyme (parent)
chain: GUCCUCUUUCACGUGCGCGUGAAAGAGAGAAGUGAACCAGAGAAACACACGUUGUGGUAUAUUACCUGGUA

Variants of: B1
Test: self-cleavage, relative activity (ratio to wild type); higher = more cleavage; co-transcriptional

In order of falling self-cleavage:
1. GUCCUCUUUCACGUGCCCGUGAAAGAGAGAAGUUAACCAGAGAAACACACGUUGUGGUAUAUUACCUGGUA  1.42
2. GUCCUCUUUCACGUGCCCGUGAAAGAGAGAAGUCAACCAGAGAAACACACGUUGUGGUAUAUUACCUGGUA  1.16
3. GUCCUCUUUCACGUGCCCGUGAAAGAGAGAAGUAAACCAGAGAAACACACGUUGUGGUAUAUUACCUGGUA  1.02
4. GUCCUCUUUCACGUGCCAGUGAAAGAGAGAAGUGAACCAGAGAAACACACGUUGUGGUAUAUUACCUGGUA  0.947
5. GUCCUCUUUCACGUGCCCGUGAAAGAGAGAAGUGAACCAGAGAAACACACGUAGUGGUAUAUUACCUGGUA  0.936
6. GUCCUCUUUCACGUGCCCGUGAAAGAGAGAAGUGAACCAGAGAAACACACGUCGUGGUAUAUUACCUGGUA  0.826
7. GUCCUCUUUCACGUGCCCGUGAAAGAGAGAAGUGAACCAGAGAAACACACGUUGUGGUAUAUUAACUGGUA  0.748
8. GUCCUCUUUCACGUGCCGGUGAAAGAGAGAAGUGAACCAGAGAAACACACGUUGUGGUAUAUUACCUGGUA  0.645
9. GUCCUCUUUCACGUGCCCGUGAAAGAGAGAAGUGAACCAGAGAAACACACGUUGUGGUAUAUUACCUGGUU  0.639
10. GUCCUCUUUCACGUGCCCGUGAAAGAGAGAAGUGAACCAGGGAAACACACGUUGUGGUAUAUUACCUGGUA  0.591
11. GUCCUCUUUCACGUGCCCGCGAAAGAGAGAAGUGAACCAGAGAAACACACGUUGUGGUAUAUUACCUGGUA  0.585
12. GUCCUCUUUCACGUGCCCGUUAAAGAGAGAAGUGAACCAGAGAAACACACGUUGUGGUAUAUUACCUGGUA  0.53
13. GUCCUCUUUCACGUGCCCGUGAAAGAGAGAAGUGAACUAGAGAAACACACGUUGUGGUAUAUUACCUGGUA  0.481
14. GUCCUCUUUCACGUGCCCGUGAAAGAGAGAAGUGAACCAGAGAAACACGCGUUGUGGUAUAUUACCUGGUA  0.409
15. GUCCUCUUUCACGUGCCCGUGAAAGAGAGAAGUGAACCAGAGAAACACACGUUGUGGUAUAUUACCUGAUA  0.404
16. GUCCUCUUUCACGUGCCCGUGAAAGAGAGAAGUGAACCAGAGAAACACACGUUCUGGUAUAUUACCUGGUA  0.387
17. GUCCUCUUUCACGUGCCCGUGAAAGAGAGAAGUGAAGCAGAGAAACACACGUUGUGGUAUAUUACCUGGUA  0.362
18. GUCCUCUUUCACGUGCCCGUGAAAGAGAGAAGUGAACCAGAGAAACACACGUUAUGGUAUAUUACCUGGUA  0.36
19. GUCCUCUUUCACGUGCCCGUGAAAGAGAGAAGUGAACCAGAGAAACACACGUUGAGGUAUAUUACCUGGUA  0.257
20. GUCCUCUUUCACGUGCCCGUGAAAGAGAGAAGUGAACGAGAGAAACACACGUUGUGGUAUAUUACCUGGUA  0.245
21. GUCCUCUUUCACGUGCCCGUGAAAGAGAGAAGCGAACCAGAGAAACACACGUUGUGGUAUAUUACCUGGUA  0.237
22. GUCCUCUUUCACGUGCCCGUGAAAGAGAGAAGUGAACCAGAGAAACUCACGUUGUGGUAUAUUACCUGGUA  0.222
23. GUCCUCUUUCACGUGCCCGUGAAAGAGAGAAGUGAACCGGAGAAACACACGUUGUGGUAUAUUACCUGGUA  0.217
24. GUCCUCUUUCACGUGCCCGUGAAAGAGAGAAGUGAACCAGAGAAACACACGUUGUGCUAUAUUACCUGGUA  0.206
25. GUCCUCUUUCACGUGCCCGUGAAAGAGAGAAGUGAACCAGAGAAACACACGUUGUGGUAUUUUACCUGGUA  0.198
26. GUCCUCUUUCACGUGCCCGUGAAAGAGAGAAGUGAACCAGAGAAACCCACGUUGUGGUAUAUUACCUGGUA  0.187
27. GUCCUCUUUCACGUGCCCGUGAAAGAGAGAAGUGAACCAGAGAAACACACGUUGUGGUAUAUUACCUUGUA  0.181
28. GUCCUCUUUCACGUGCCCGUGAAAGAGAGAAGUGAACCAGAGAAACACACGUUGUGGUGUAUUACCUGGUA  0.171
29. GUCCUCUUUCACGUGCCCGUGAAAGAGAGAAGUGAACCAGAGAAACAGACGUUGUGGUAUAUUACCUGGUA  0.165
30. GUCCUCUUUCACGUGCCCGUGAAAGAGAGAAGUGAACCAGAGAAACACACGUUGUGGUCUAUUACCUGGUA  0.162
31. GUCCUCUUUCACGUGCCCGUGAAAGAGAGAAGUGAACCAGAGAAACACACGUUGUGGUAUAUUACAUGGUA  0.154
32. GUCCUCUUUCACGUGCCCGUGAAAGAGAGAAGAGAACCAGAGAAACACACGUUGUGGUAUAUUACCUGGUA  0.149
33. GUCCUCUUUCACGUGCCCGUGAAAGAGAUAAGUGAACCAGAGAAACACACGUUGUGGUAUAUUACCUGGUA  0.134
34. GUCCUCUUUCACGUGCCCGUGAAAGAGAGAAGGGAACCAGAGAAACACACGUUGUGGUAUAUUACCUGGUA  0.121
35. GUCCUCUUUCACGUGCCCGUGAAAGAGAGAAGUGAACCAGAGAACCACACGUUGUGGUAUAUUACCUGGUA  0.0898
36. GUCCUCUUUCACGUGCCCGUGAAAGAGAGAAGUGAACCAGAGAAACGCACGUUGUGGUAUAUUACCUGGUA  0.0817
37. GUCCUCUUUCACGUGCCCGUGAAAGAGAGAAGUGAACCAGAGAAACACACGUUGUGGUAUAUUACGUGGUA  0.0719
38. GUCCUCUUUCACGUGCCCGUGAAAGAGAGAAGUGAACCAGAGAUACACACGUUGUGGUAUAUUACCUGGUA  0.0541
